Consider one molecule from article PMC8006934 (2021).

What all share (experiment): SPR
Assay [1] concerns the target FcγRIIIa-F158, human, C-terminally biotinylated (human, UniProt P08637 17-208, biotin, C-terminal).
Assay [2] deals with T1, FcγRIIa-H131, human, C-terminally biotinylated (human, UniProt P12318 34-217, biotin, C-terminal).
T1 chain: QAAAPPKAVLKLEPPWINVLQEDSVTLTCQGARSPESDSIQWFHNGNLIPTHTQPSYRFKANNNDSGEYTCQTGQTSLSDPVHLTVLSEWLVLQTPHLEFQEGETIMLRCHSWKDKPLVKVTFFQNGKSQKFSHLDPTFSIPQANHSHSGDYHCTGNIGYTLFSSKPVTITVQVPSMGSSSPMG

In assay [3] the target is T2, FcγRIIa-R131, human, C-terminally biotinylated (human, biotin, C-terminal).
T2 chain: T1 chain with H134R

Assay [4] addresses T3, FcγRIa, human, C-terminally biotinylated (human, UniProt P12314 16-292, biotin, C-terminal).
T3 chain: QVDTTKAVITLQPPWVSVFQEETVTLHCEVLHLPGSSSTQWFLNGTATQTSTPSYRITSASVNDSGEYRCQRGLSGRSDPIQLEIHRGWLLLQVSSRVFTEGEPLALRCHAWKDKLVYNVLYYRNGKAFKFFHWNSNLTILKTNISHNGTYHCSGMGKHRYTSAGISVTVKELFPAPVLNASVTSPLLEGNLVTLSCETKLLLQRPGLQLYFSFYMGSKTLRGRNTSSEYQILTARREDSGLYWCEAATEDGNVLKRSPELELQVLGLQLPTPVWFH

The target in assay [5] is FcγRIIIa-V158, human, C-terminally biotinylated (human, UniProt P08637 17-208, p.176Val (V158), biotin, C-terminal).
FcγRIIIa-V158, human, C-terminally biotinylated, sequence (P08637 other isoform, or with tags, fused parts or gaps p.176Val (V158)): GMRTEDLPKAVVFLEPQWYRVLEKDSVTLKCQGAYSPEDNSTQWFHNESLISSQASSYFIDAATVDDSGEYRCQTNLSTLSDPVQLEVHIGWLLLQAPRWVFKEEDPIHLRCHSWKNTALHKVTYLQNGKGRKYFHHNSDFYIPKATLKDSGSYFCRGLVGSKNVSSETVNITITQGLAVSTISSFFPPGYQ

Where a chain is given by its changes, count along the chain named.

FcγRIIIa-F158, human, C-terminally biotinylated, sequence (P08637 17-208): as the sequence (P08637 other isoform, or with tags, fused parts or gaps p.176Val (V158)) above, with V160F counted along it

B1: C-reactive protein (native CRP from human fluid) (natural protein)
chain: QTDMSRKAFVFPKESDTSYVSLKAPLTKPLKAFTVCLHFYTELSSTRGYSIFSYATKRQDNEILIFWSKDIGYSFTVGGSEILFEVPEVTVAPVHICTSWESASGIVEFWVDGKPRVRKSLKKGYTVGAEASIILGQEQDSFGGNFEGSQSLVGDIGNVNMWDFVLSPDEINTIYLGGPFSPNVLNWRALKYEVQGEVFTKPQLWP
As to B1, the Kd came to 4.9 µM in assay [1]; 4.5 µM in assay [2]; 4.6 µM in assay [3]; 3.4 µM in assay [4]; 4.4 µM in assay [5].
